Experimental data as given in the DeepSol protein solubility set.

Assay: soluble on expression in E. coli; label from the status in PepcDB or PDB records

Sequence | soluble on expression in E. coli
MGSDKIHHHHHHMSKRKLTTKFEEEPLNFGTGMWNVGLTPNVCRCTLLLPTSCMTCLVGTGRTASGRWPATYVPFDESAISELKRYASFIAISNHSDLLSDPSGSRRFICINITGRIRNGVAINYLQPYAQAVQELREGECFYFSPEEEAVLMENNQEFELQTPVGHLFQQYFRSADEGEKCETLLAVDILGRIQKKSGFKLSATKIVHLGRILRKLGVPCKKMKNGNFYCVVEL | not soluble
MGSDKIHHHHHHMSKRQFGLIYISSYQARLFIVDLKKLAIIEQLSSVQFVQGGKKFEVYENELPRLTDALIGFKRKIAEYGIDNYKVYGNRQLLDKISARYLADQIKVRTGLEIEWLNGAQIAYYKIIAGMALPQFSELADDEFTYLLSMGSAMLNLTLFKGQHYLSTWNFALGPEEIEEMAAMTRDTPSDPIDIIGDYISRKLVSFKTIEKPTGKARIIIQHVFGRGEQSLRPQEKARVIDLKQFAGVYSDFREAPDQYLMEKYELDTDSLARMKPTIVLINQLVKIIKPHMMTLTQSSAITGLMIQEAARLKYRPDEYSTIVLTATKNIARRYESGGQHINLSNKFALHIFDRLAHAGMVDRRDRQLLEIAARLHDIGNFINFHNHYEHAAYIVGANQIIGLSDRENEMLLSILKHQDITNLNADEREYRHLDPALQVRVAKLAAILRLANSLDASRKQKISKIVVSIKDEKMLIVVTSKRDLTLERWVFEKNVNLAEAVFGMKIAMKQKRGK | not soluble
MGSDKIHHHHHHMSLKQMECVVAVAKLRSFTKAAAKLKVAQPSLSQSIQAVEKQVGVPLFDRSTFPITLTHAGEVYVAKANAIIELYKDLNTQMCDVIGSDKGPLRLGFSQTGYQFIPTALAKFCKRFPCADLRVVQVFSTLKLEKMLSEGDIDIATLVLPLSSPEIDYKIIKENQAFLALPITHPLSQKAIREAQDSPSVSLEELKEERFILPKSTQRSRPIFDEIFRKAGFEPKIFCETETFDIANAIVASGVGACFTLPQFIKEDKQDKVVLFHVDEPLLARTVVLAYRKDKHLSKMACEFLTIARSL | not soluble
MGSDKIHHHHHHMSLSRNSDLHMHSTASDGGYSPTELMEKCHQANLKFVALTDHDTVNGIEEAKQTAHRLGFILIPGIELSTKASGQSVHMLGYGIDWKNDTLKRRLDRQQDIRKQRLEQILLKLKAAGVPLEQDAVLRYADGGAIGRPHVAKALMDKGYVRSVQEAFEHYLAEGRPCYVKRQEYISVEQAIAWIHQAGGVAIVAHPGYYDLDDQLIGWVREYGLDGIEVYHRDHSREVVAHYEQLCKRMEAETGRRLLRTGGSDFHHESYGRTAAPLGTTRIPDQLTYELLHDLERKKTRA | not soluble
MGSDKIHHHHHHMSMPSIDIEPTPRTLRTLALFDLDHTLLDVDSDYLWGEYIVKHNLVDEAQYRTANQKFYNDYIEGRLDATEYNEFVAQFLSSLPMGRLHELREDYIKSEIEPHIRPKAMEVLCQHVEEGHDVVIISATNDFVVSAIAKRFGIEDGNVLSTPLEIKDKRYTGKLTDKPNFKEGKIYHLDKWIGKQQLAGIHFNKTYAYSDSKNDIPLLEWADVAICVSPDAALHAHALSHRWAVEDWSI | not soluble
MGSDKIHHHHHHMSNAKRLLVSDMKMGVDISENELLRQSEGLLQRLLFDHTTQRNIFWATDDYTTLGDAYKYDAPITTDSITGEHDTVIQPRVLKSKEEQANRTKDKAEVFTPSWVCNAQNNLIDEAWFGRKDVFNIEQPETKTWIATTEPITFPEGKTWKDYVCSTRMEITCGEAPYLVSRYDTTTGEFIPIPQRIGMLDRKLRIISENTSSTGEWLKMAQKAYKNIYAYEWQGDNLLLAREALLITFIEYYEEKFGKRPLDKSIEYIAYIISWNVWQMDGLKGVVPNSCTHGVSVLPDDLFESMEELILCPGCQNESIKKHNGTYCLIRDWGCKDPKTGENNRKIRFVDLIKNNI | not soluble
MGSDKIHHHHHHMSNHSSSIPELSDNGIRYYQTYNESLSLWPVRCKSFYISTRFGQTHVIASGPEDAPPLVLLHGALFSSTMWYPNIADWSSKYRTYAVDIIGDKNKSIPENVSGTRTDYANWLLDVFDNLGIEKSHMIGLSLGGLHTMNFLLRMPERVKSAAILSPAETFLPFHHDFYKYALGLTASNGVETFLNWMMNDQNVLHPIFVKQFKAGVMWQDGSRNPNPNADGFPYVFTDEELRSARVPILLLLGEHEVIYDPHSALHRASSFVPDIEAEVIKNAGHVLSMEQPTYVNERVMRFFNA | soluble
MGSDKIHHHHHHMSNPLLKQICELDVFTLLVFKSIFDNGHANSAAKALNVSAPKISRCLNALRLTFNDELFYRRQQGLKPTPLAESLYVAICQFTDAVHHLEQSALQLQHSASHVELPLHIAASNGLLSFLAPQLSSPEVISELGQIRLHKWQDNSAELIHAGELDLGITQEPVETKELTITHLGSIASVYIVASKHHPLWESQFDITLEQICRHSFLCLEMKGFNARIDPLELFCQRQGLLLPSIERVIDREEWYAHLLTMQSVAFCSSIDMHTVKHMPGLKLVPLSVSELHRLHETIMPPQYFLIEKPRSHRRYNQTQCELVVRSWLTVLSSNSRVSQ | not soluble
MGSDKIHHHHHHMSNQKIIRLSPNPQDFGHDCDDLDPQMFASELPVQHTHVYYEDDNLGLYIGVWDTSTMVEAAAPSPCDEFMYLLEGEVEIKNSKTGTMEKVQAGEAFVIPKGYDCQWHQTGYLRKFFVISEHPKEDIPTTPVVEGIIKLKVNNSSQMAIEDSTGVEIEPTNTPFVIKGKEPAQKHLPSYKDHTGKFIAGTWHSEAFNSEMQPFPRNEFIYLQSGSLVITEQEGDEQVFTAGDAFFVPQGALCSWRSIGDVHTFYAILQSS | not soluble
MGSDKIHHHHHHMSNTDKYYRDRSHITGKLDLQKLPKAIREKQYGIDVREAMAQTAEAIAGVQSTAQKFNQDTKNQVNQLDEKYTREIRAIVLGDTTSVATPPIQEPNSEASNPLSNLYETARGQVLYDFVKQSSLTKVSKIGVIGDSVAATAGGFPDILAHQYNIYVENLSVGGAKMSDYNHDAIVNQASRLQQCDVVIIQGTDDDWVHDISLGYAGDTNIKTYLGGLRETIKRVKNNNPKAKLIVVNCTRQCVDVHGKYRTEQSKNTFGLTLIDYMEAQKKYLNQQDVPYVDLMKPTSIFEPDNPAFKKTMMHDGLHPTPEAHQYIVQEIAKDYSYYYDK | not soluble
MGSDKIHHHHHHMSPLFTNSEIISRVIKEHFNKNLDHYDGVKFSFMVLNKKNPSQMIIISSYPDEWVNLYKENKYQHIDPVVLASFNKISPFSWEKSLVINTRLQLAKIFDLSKKYDIINGYTFVLHDHGDNLAMLSIIVDNSYPDDVETFIEERKDIFQMLLIEAYEKIISLCKEMIGNKKQLNNKEIFSQRENEILYWASMGKTYLEVAIILGIKTSTVKFHIGNVVKKLGVLNAKHAIRLGVELQLIKPVQ | not soluble
MGSDKIHHHHHHMSQLLIKNAYLITMNADREVYENGSILIENNIIKEVGKFDINIVDKDAEIYDAKGKILMPGLVNTHVHLSQQLGRGLADDVVLLTWLRERIWPYESSFNYEDSLISSTACCVELIKSGVTTFLESGGQYVDAMVEAVDKTGLRACLAKSVMDTGDGLPEAWQKTTDEEINTQLDLFHKFNNTSNERIKIWFALRTIFNTTEELLVRTKELADKYNTGIHMHIAEIADEISFVKQNNGVGTVEYLDKLGVLGPNLLAAHTVWLTHKEIDLFRLHDVKVSHDPGSAMKVVLGFASIPEMLEKGIPVSIGTDGAPSNNRMDLMRDMYLTSLIHKGRTLNPTVVPAEEVLEMATINGAKCALLEKEIGSLEVGKKADMIILNPDTIHCLPMHNPIGNIVYSMTSENVDSTICDGKWLMKERKVLVVDESELLNKVKKQASKIKDKAEVKIPSKFKIIK | not soluble
MGSDKIHHHHHHMSQSIRQAVMQASQAWIADFNRQAFADCIARYLPEAQMQVSPFGRFDGVEAISQFWLGFAQQNPGELVYRNVEIKVLSDSQAILSANWRMNIASGFISKELWTLADDGHWYLEEDDFSVLTQLSEPLAPRMRSALVLVDLQNDYFKGGRFALDNCEAAAANAAKLLHHFRSNQLPVIHVQHIFKDPEASFFQAGTQGVEIADMVAPKGNEPVIIKHYVDSFIDTALSQTLIEMGIDKLVVVGAMAQACVQTLCRSAVKAGFECEVISDAIAAPSLSWESQDLSGEQLVAANLISLSFGGAKALSLDDWLILERLAG | not soluble
MGSDKIHHHHHHMSQYAEMSLVYDQLTQDQPYEKWFEIVKNHCKDESNILDIGCGTGSLTVQLEALGNVTGMDLSVDMLTVAAQKSANVNWLEGDMTSFDLQQQFDIITIFCDSLNYLQDETAVIETFINVYHHLTDSGVFIFDVHTVYKMMTLFNNQSYIDDKGDIFLAWDAVQGDLPLSVYHDMTFFIRHEDETYSRFDESHFQRTFDEKTYLSWLAQVGFKHVETFTDFNIDEHNEDTERLFFIAKK | not soluble
MGSDKIHHHHHHMSRPAITAIPVFKLYGETTAWPTPDLIHCESIPERSRMHDWEIKPHRHGDLVQLLYVQSGKAMLKVEDRVRKVETASLQVVPALSVHTFRFAEDIQGHILSLAKPLVEQLETTLDSSAMRTARCYELGADSHYVDTLFSAIAREYRQPRAGRDLMLHSLINVLVVWLSRRNSEEAGEQVQTMDRGREHLQVFMHQLETCFREHWSIEQHAQAMGISAAHLNALCRRLCDQSALQIISQRLLLEAKRNLIYTTLTINQVSDSLGFSEPAYFSRFFKRATGQSPREFRQQK | not soluble
MGSDKIHHHHHHMSRVNELVGTLFTGGRKPDDLYGRVFVVSAFGGITNLLLEHKKTGEPGVYARFADAESDHGWHEALSRVGDEMRKAHEAVLENAGDVAQADAFVSERIEGARNCLIDLQRLCSYGHFRLAEHMLQIRELLSGLGEAHSAYVTALLLQRAGVNARFVDLSGWRDEGDVTLEERISSALNDVDPATEMPIVTGYAQCAEGLMREFDRGYSEVTFSCLAALTGASEAIIHKEFHLSSADPKLVGEGVAQKLGHTNYDVADQMSNMGMEAIHPKAAKTLRQADVPLRVTNAFEPEDPGTLIDDKPADQPAVEMITGLDIIALELFEQDMVGVKGYDAAILEVLTRHDVRIVSKTSNANTITHYLDTSLTVLKRVEKDLAKIYPNADISARLLSMASAIGRDLKGLSVLTRGLQAIADVGLASLGASQGPRNVDVQFIVEREDLKPVISALHKVLVEGRPAKQEKPIKAAA | not soluble
MGSDKIHHHHHHMSRYVIRTYKVPVPVELYPLCSELNRIAARIYNKTMSLVKKIKNKKGFWLSPNTAQKYILRWSSAIDIHTHSKQAMVQLYFQALNSYFVAVKTNPHAKPPYKRKNFLPFIWKNQAIKLLPDGKVKLSMGRNREPFVIPTTLPAGTTIRQAKLVYEAGRYYLHLAIEVKSEHKRGQSQKVMSVDVGILRPITCFDGSEVISYHGGVLNSILRYRNKRLADIQRALSRCQKGSRRYKKLSRAKRRVLYKTRNQINDVLHKITSHFIGLCVQKNIGTIVVGDITNIRERTNGNDNFNQKLHQWAFRKLMSQIEYKAQIFGIEVVRISEAHTSKTCPVCGTQNRPSGRNYKCAGCGFEYHRDGVGAINIWKRYLGTKSQVVAGLAPARGVRFNPHLCGHGAISAPWKAA | not soluble
MGSDKIHHHHHHMSSDSVIRVSNLGKRYEIYAQPKDRLKQMVMPRLKRMIGMHPPEYFREFWALRGVSFEVRRGETVAIIGQNGSGKSTLLQLVCGTLFPTNGDIQVKGRIAALLELGAGFNPEFTGEENIYLSGLLYGISEDELRNRFDSIVEFAEIGEFISQPVKTYSSGMYVRLAFAIAAHVDADMLVVDEALSVGDVRFTQKCMRFLREFQKTGTLLFVSHDVGAVTSLCSRAIWLNQGVLKMDGPAKETVEAYLAEQHALDRGQRGDVVQLAKAREKVAKQPAKAANPPVVDVVDQRWEALRANGSGTRIEVFEFMPDSSESEFGARGATIERVALRNEAGEDLPIVQGGELVDLYIESRSHQALAGLIFGFYLKDRLGQRLFGDNTFMTYADREVRSQAGDTHIARFRFRMPIMPVGAYSFDVAIATGNQHDHTQQHWIHDALSMRAVDSTMRHGLVGIPMLEIAISKEG | not soluble
